US20170035894A1, “DRUG DELIVERY CONJUGATES FOR TREATING RESISTANT CANCER AND FOR USE IN COMBINATION THERAPY” (ENDOCYTE, INC., priority 2014, published 2017)
Entries after “also recorded” stand apart in the source; their conditions may differ. Where two headings read alike, the source gives them in different places. Marks after values point to notes of the source that are not given here.

Legend:
ST738 tumors = test: TNBC PDX tumor model; type: in vivo, Balb/c nu/nu mice; settings: combined with Eribulin mesylate 1 mg/kg
Procedure: (§1) Female Balb/c nu/nu mice were fed ad libitum with folate-deficient chow (Harlan diet #TD01013) for the duration of the experiment. Primary human Endometrial model ST040, TNBC models 5T502 and ST738 and Ovarian model ST024 fragments (2-4 mm in diameter) were inoculated subcutaneously at the right flank of each mouse. Mice were randomized into 6 experimental groups of 5 or 3 mice each and test articles were injected through the lateral tail vein under sterile conditions in a volume of 200 μL of phosphate-buffered saline (PBS).
(§2) Growth of each s.c. tumor was followed by measuring the tumor two times per week until a volume of 1200 mm^3 was reached. Tumors were measured in two perpendicular directions using Vernier calipers, and their volumes were calculated as 0.5×L×W^2, where L=measurement of longest axis in mm and W=measurement of axis perpendicular to L in mm.

ST502 tumors = test: TNBC PDX tumor model; type: in vivo, Balb/c nu/nu mice; settings: combined with Eribulin mesylate 1 mg/kg
Procedure: as §1, §2

KB cells = type: cell-based, human
Procedure: METHOD. Inhibition of Cellular DNA Synthesis. The compounds described herein were evaluated using an in vitro cytotoxicity assay that predicts the ability of the drug to inhibit the growth of folate receptor-positive cells, such as KB cells, RAW264.7 macrophages, and the like. It is to be understood that the choice of cell type can made on the basis of the susceptibility of those selected cells to the drug that forms the conjugate. The test compounds were comprised of folate linked to a respective chemotherapeutic drug, as prepared according to the processes described herein. The test cells were exposed to varying concentrations of folate-drug conjugate, and also in the absence or presence of at least a 100-fold excess of folic acid to assess activity as being specific to folate receptor mediation.
Conjugates of cytotoxic drugs described herein are active against KB cells. The activity is mediated by the folate receptor as indicated by competition experiments using co-administered folic acid. KB cells were exposed for up to 7 h at 37° C. to the indicated concentrations of folate-drug conjugate in the absence or presence of at least a 100-fold excess of folic acid. The cells were then rinsed once with fresh culture medium and incubated in fresh culture medium for 72 hours at 37° C. Cell viability was assessed using a ^3H-thymidine incorporation assay. For compounds described herein, dose-dependent cytotoxicity was generally measurable, and in most cases, the IC50 values (concentration of drug conjugate required to reduce ^3H-thymidine incorporation into newly synthesized DNA by 50%) are in the low nanomolar range.
METHOD. In vitro activity against various cancer cell lines. IC50 values were generated for various cell lines. Cells were heavily seeded in 24-well Falcon plates and allowed to form nearly confluent monolayers overnight. Thirty minutes prior to the addition of the test compound, spent medium was aspirated from all wells and replaced with fresh folate-deficient RPMI medium (FFRPMI). A subset of wells were designated to receive media containing 100 μM folic acid. The cells in the designated wells were used to determine the targeting specificity. Without being bound by theory it is believed herein that the cytotoxic activity produced by test compounds in the presence of excess folic acid, i.e. where there is competition for FR binding, corresponds to the portion of the total activity that is unrelated to FR-specific delivery. Following one rinse with 1 mL of fresh FFRPMI containing 10% heat-inactivated fetal calf serum, each well received 1 mL of medium containing increasing concentrations of test compound (4 wells per sample) in the presence or absence of 100 μM free folic acid as indicated. Treated cells were pulsed for 2 h at 37° C., rinsed 4 times with 0.5 mL of media, and then chased in 1 mL of fresh medium up to 70 h. Spent medium was aspirated from all wells and replaced with fresh medium containing 5 μCi/mL ^3H-thymidine. Following a further 2 h 37° C. incubation, cells were washed 3 times with 0.5 mL of PBS and then treated with 0.5 mL of ice-cold 5% trichloroacetic acid per well. After 15 min, the trichloroacetic acid was aspirated and the cell material solubilized by the addition of 0.5 mL of 0.25 N sodium hydroxide for 15 min. A 450 μL aliquot of each solubilized sample was transferred to a scintillation vial containing 3 mL of Ecolume scintillation cocktail and then counted in a liquid scintillation counter. Final results are expressed as the percentage of ^3H-thymidine incorporation relative to untreated controls.

[1] = Maximum tolerated dose (MTD); type: in vivo, female Sprague-Dawley rats
Procedure: Maximum tolerated dose (MTD). […] Test compounds were administered by i.v., BIW, 2 wks in female Sprague-Dawley rats. […] Histopathologic changes were not observed with doses of EC1456 at or below the MTD.

[2] = Toxicity as measured by weight loss / gross animal toxicity in tumor-bearing mice; settings: for Toxicity Avg. Weight Loss / Toxicity Deaths (%): TIW
Procedure: METHOD. Toxicity as Measured by Weight Loss. The percentage weight change of the test animals was determined on selected days post-tumor inoculation (PTI), and during dosing. The results were graphed.
Evaluation. Tumor size was monitored and body weight measured 3 times/week. Attention was given to gross animal morphology and behavior. Euthanasia was performed if the mice lost >20% of weight or when the tumors reached a size of 1500 mm3. Euthanasia was also performed at the researcher's discretion if mice lost a lot of weight in a short duration or when mice were approaching moribund conditions. Blood samples were collected by cardiac puncture from all viable animals from selected cohorts. Heart, lungs, liver, spleen, kidney, intestines, bone, brain and muscle were obtained immediately after euthanasia. The tissues were removed and stored in 10% neutral-buffered formalin.

[3] = EC1456 2 μmol/kg two times a week for two weeks
[4] = EC1456 4 μmol/kg once a week for two weeks
[5] = difference in IC50 between competed and non-competed group
[6] = KB tumors, 0.5 μmol/kg, 3 weeks
[7] = KB tumors, 0.67 μmol/kg, 2 weeks
[8] = KB tumors, 1.0 μmol/kg, 2 weeks
[9] = KB tumors, 2.0 μmol/kg, 2 weeks

CCCC(=O)OCN(C(=O)[C@@H](NC(=O)[C@H]1CCCCN1C)C(C)CC)[C@H](C[C@@H](OC(C)=O)c1nc(C(=O)N[C@@H](Cc2ccc(O)cc2)C[C@H](C)C(=O)NNC(=O)OCCSSC[C@@H](NC(=O)[C@H](CCC(=O)NC[C@H](O)[C@@H](O)[C@H](O)[C@H](O)CO)NC(=O)[C@@H](CCC(=O)O)NC(=O)[C@H](CCC(=O)NC[C@H](O)[C@@H](O)[C@H](O)[C@H](O)CO)NC(=O)[C@@H](CCC(=O)O)NC(=O)[C@H](CCC(=O)NC[C@H](O)[C@@H](O)[C@H](O)[C@H](O)CO)NC(=O)CC[C@@H](NC(=O)c2ccc(NCc3cnc4nc(N)[nH]c(=O)c4n3)cc2)C(=O)O)C(=O)O)cs1)C(C)C (stereo in doubt) [EC1456]
animals exhibiting cures (ST738 tumors; [3]): 7 animals
animals exhibiting PR's (ST738 tumors; [4]): 2 animals
animals exhibiting cures (ST738 tumors; [4]): 4 animals
animals exhibiting CRs (ST502 tumors; [3]): 5 animals
animals exhibiting cures (ST502 tumors; [3]): 2 animals
animals exhibiting CR's (ST502 tumors; [4]): 3 animals
animals exhibiting PR's (ST502 tumors; [4]): 4 animals
IC50 (KB cells; FR expression +++, read-out: Activity (IC50)): 2.3 nM
IC50 (KB cells; IC50 when competed with excess folic acid, read-out: 50% competition (nM) (c)): 1420 nM
IC50 (KB cells; as determined by thymidine incorporation, read-out: In vitro IC50 (nM) (b)): 1.5 nM
In vitro specificity (fold) (d) (KB cells; [5]): 944 fold
specificity for the folate receptor as determined by folic acid competition (KB cells; [5]): ca. 1000 fold
Competable up to 100 nM (KB cells; folic acid competition): Yes
improvement in specificity compared to comparator compound EC0531 (KB cells; folic acid competition): 4 fold
Histopathologic changes ([1]; doses at or below the MTD): not observed
MTD at 2 wks ([1]; female, Sprague-Dawley, rat, in vivo, iv, BIW, 2 wks): ≥ 0.51 µmol/kg
improvement of MTD over EC0531 ([1]; i.v., BIW, 2 wks): 65%
whole animal toxicity as determined by animal body weight ([2]; KB tumors in nu/nu mice, 1 μmol/kg TIW, 2 weeks): did not result in any observable whole animal toxicity; also recorded: did not show any evidence of whole animal toxicity
gross animal toxicity ([2]; KB tumors, carboplatin/paclitaxel study, EC1456 alone 1 μmol/kg BIW×2): Gross animal toxicity was not observed
toxicity ([2]; KB tumors, carboplatin/paclitaxel study, carboplatin in combination with EC1456): Mild toxicity
Toxicity Avg. Weight Loss [2, 6]: <5%*
Toxicity Deaths (%) [2, 6]: 0%
Toxicity Avg. Weight Loss [2, 7]: <2%
Toxicity Deaths (%) [2, 7]: 0%
Toxicity Avg. Weight Loss [2, 8]: <1.5%
Toxicity Deaths (%) [2, 8]: 0%
Toxicity Avg. Weight Loss [2, 9]: <3%
Toxicity Deaths (%) [2, 9]: 0%
gross animal toxicity ([2]; KB tumors, EC1456 alone 1 μmol/kg BIW×2): Gross animal toxicity was not observed
gross animal toxicity ([2]; KB tumors, EC1456 alone 1 μmol/kg TIW×5): Gross animal toxicity was not observed
toxicity ([2]; KB tumors, cisplatin 3 mg/kg BIW×3 in combination with EC1456): Mild toxicity
toxicity ([2]; KB tumors, docetaxel 7 mg/kg BIW×3 in combination with EC1456): Mild toxicity
weight loss / host animal toxicity ([2]; KB-CR2000 tumors, EC1456 2 μmol/kg TIW 2 weeks): did not exhibit significant host animal toxicity; also recorded: did not cause any weight loss
gross animal toxicity ([2]; KB-DR150 tumors, EC1456 alone 2 μmol/kg TIW×2): Gross animal toxicity was not observed
toxicity ([2]; KB-DR150 tumors, doxorubicin in combination with EC1456): Mild toxicity
gross animal toxicity ([2]; M109 tumors, EC1456 alone 2 μmol/kg TIW×2): Gross animal toxicity was not observed
toxicity ([2]; M109 tumors, cisplatin in combination with EC1456): Mild toxicity
weight loss / gross whole animal toxicity (% weight change) ([2]; MDA-MB-231 tumors, 2 μmol/kg i.v. TIW 2 weeks): did not cause gross whole animal toxicity; also recorded: not accompanied by significant weight loss
gross animal toxicity ([2]; P-1635 KB tumors, EC1456 alone 1 μmol/kg TIW×2): Gross animal toxicity was not observed
toxicity ([2]; P-1635 KB tumors, carboplatin 50 mg/kg TIW in combination with EC1456): Mild toxicity
